Source: patent US20220340894A1 (CDR LIFE, published 2022)

B1: M0707 (Fab, V domains shown)
VH: QQQLEESGGGLVTPGTPLTLTCTVSGIDLSSYAMGWVRQAPGKGLEWIGTINDGGSAFYASWVKGRFTISRTSTTVDLKITSPTAEDTATYFCAKTYGTNGDVYWGYFNLWGQGTLVTVSS
VL: ELVMTQTPASVSEPVGGTVTIKCQASQSIGSNLAWYQQKPGQPPKLLIYYESILASGVPSRFSGSGSGTEYTLTISGAQADDAATYYCQQGYSSSNILNAFGGGTEVVVKR
B2: M0709 (Fab, V domains shown)
VH: QSVKESGGRLVTPGTPLTLTCTVSGFSLSNYAMSWVRQAPGKGLEYIGIVSSGGTTYYASWAKGRFTISKTSTTVDLKITSPTTEDTATYFCAKDLYYGPTTYSAFNLWGQGTLVTVSS
VL: SELVLTQPQSVSGSLGQTVSISCKRARDNIEDYYVHWYQQHPGKTPTIVIHKDDQRPSGVPDRFSGSIDSTSNSASLTITGLLAEDEADYFCQSFDNDASPVFGGGTQLTVTG
B3: M0763 (Fab, V domains shown)
VH: B2 VH
VL: SELVLTQPASVQVNLGQTVSLTCTADTLSRSYASWYQLKPGQAPVLLIYRDTSRPSGVPDRFSGSSSGNTATLTISGAQAGDEGDYVCATSDGSGSNFQLFGGGTQLTVTG
B4: M0766 (Fab, V domains shown)
VH: PEQLEESGGGLVTPGGVLTLTCTASGFSFSSYGVNWVRQAPGKGLEWIGFIFGDGTTYYANWAKGRFTISKTSTTVDLKMTSPTTEDTATYFCARDGYGGYDYIINLWGQGTLVTVSS
VL: AQVLTQTPASVSAAVGGTVSISCQSSQSVVNNNWLAWYQQKPGQPPKLLIYKASTLESGVPSRFKGSGSGTQFTLTISGVQADDAATYYCLGEFSCSSADCHAFGGGTELEILR
B5: M0702 (Fab, V domains shown)
VH: QEQLEESGGGLVTPGTPLTLTCTASGFSLSSYAMIWVRQAPGKGLEWIGTINDGGTAFYANWVKGRFTISRTSTTVDLKMTSPTTEDTATYFCARAYGSNGDVYWGYVNLWGQGTLVTVSS
VL: ELVMTQTPASVSEPVGGTVTIKCQASQSIGSNLAWYQQKPGQPPKLLIYAAANLASGVSSRFKGSRSGTEYTLTISGVQAADAATYYCQQGYSSSNVANVFGGGTELEILR

Assays:
[1] = target: T1, HLA-A2/MAGE-A4 complex (HLA-A*02:01 extracellular domain, human β2m, MAGE-A4 peptide 230-239) (human, UniProt P04439 25-299 at identity 0.94); P61769 21-119); experiment: direct ELISA, plate coated with HLA-A2/MAGE-A4 complex, OD450 nm (top panel, 'Binding to HLA-A2/MAGE-A4', M0700-M0709)
T1 construct: also called MAGE-A4/HLA-A2 complex; pMHC
Experimental: (§1) All available hits were evaluated for their ability to bind MAGE-A4/HLA-A2 complex and a control peptide/HLA-A2 complex in a direct binding ELISA assay. […] Briefly, 96 well ELISA plates were coated with purified human MAGE-A4/HLA-A2 complex or control HLA-A2 complex. Serial dilutions of antibody molecules were added to the plate and detected by an anti-kappa light chain-HRP (Invitrogen) followed by goat anti-rabbit IgG(H+L) HRP (Southern Biotech). […] All tested molecules are rabbit-derived antibodies that are representative of antibodies identified from the nucleic acid libraries described herein.

[2] = target: T2, MAGE-A4 peptide-HLA-A2 complex presented on cells (human); experiment: flow cytometry on T2 cells pulsed with MAGE-A4 peptide; relative MFI = binding over peptide loading (BB7.2)
T2 construct: whole, on cells; Used both for T2 cells pulsed with the peptide and for tumour cell lines that present it themselves; also called MAGE-A4 positive/HLA-A2 positive cells
Experimental: (§2) TAP-deficient T2 cells were pulsed with HLA-A2-restricted peptides (MAGE-A4 or control peptides) and incubated with MAGE-A4 binders followed by fluorophore-labeled specific detection antibodies and analysis by flow cytometry.
(§3) Briefly, T-B hybrid T2 cells were incubated with serum-free RPMI1640 medium containing MAGE-A4 or control peptides. […] Peptide loading efficiency was verified by using the ratio between median fluorescent intensity (MFI) of HLA-A2-binding antibody BB7.2 on peptide loaded T2 cells and MFI of unloaded T2 cells (>1). T2 cells were incubated with each of the specific antibodies followed by fluorophore-labeled detection antibodies (anti-kappa light chain or anti-Flag). The cells were fixed and fluorescence was measured by flow cytometry.

[3] = target: T3, control peptide 1 (Ctrl.1, …) displayed by HLA-A2 on T2 cells (human); experiment: flow cytometry on T2 cells pulsed with control peptide 1; relative MFI = binding over peptide loading (BB7.2)
T3 construct: whole, on cells
Experimental: as §2, §3

[4] = target: T4, control peptide 2 (Ctrl.2, …) displayed by HLA-A2 on T2 cells (human); experiment: flow cytometry on T2 cells pulsed with control peptide 2; relative MFI = binding over peptide loading (BB7.2)
T4 construct: whole, on cells
Experimental: as §2, §3

[5] = target: T1, HLA-A2/MAGE-A4 complex (HLA-A*02:01 …); experiment: direct ELISA, plate coated with HLA-A2/MAGE-A4 complex, OD450 nm (second panel, 'Binding to HLA-A2/MAGE-A4', M0710-M0766)
Experimental: as §1

[6] = target: T3, control peptide 1 (Ctrl.1, …) displayed …; experiment: flow cytometry on T2 cells pulsed with control peptide 1; relative MFI = binding over peptide loading (BB7.2); antibody concentration not given
Experimental: as §2, §3

[7] = target: T4, control peptide 2 (Ctrl.2, …) displayed …; experiment: flow cytometry on T2 cells pulsed with control peptide 2; relative MFI = binding over peptide loading (BB7.2); antibody concentration not given
Experimental: as §2, §3

[8] = target: T5, control peptide 3 (Ctrl.3, …) displayed by HLA-A2 on T2 cells (human); experiment: flow cytometry on T2 cells pulsed with control peptide 3; relative MFI = binding over peptide loading (BB7.2); antibody concentration not given
T5 construct: whole, on cells
Experimental: as §2, §3

Binder	binding result [1]	binding result [2]	binding result [5]	further results
B1	binds	–	–	–
B2	binds	binds	–	binding result [3]: binds; binding result [4]: binds
B3	–	binds	binds	binding result [6]: no binding; binding result [7]: no binding; binding result [8]: no binding
B4	–	–	binds	–
B5	–	–	–	EC50 (read off the curve) [1]: ~0.6 nM
